Ends that are not written are not given here.
Legend:
[1] = Degradation of synthetic peptides added to fresh plasma, MALDI-TOF MS read-out; type: in vitro ADME, human
Method: In an effort to begin to understand the presence and roles of exoproteases, synthetic C3f was added to fresh plasma at a concentration close to that observed in serum. […] The resulting pattern was similar to the endogenous one observed in serum and also illustrated the disparate ion intensities for different rungs in the ladder.

[2] = Degradation of synthetic peptides in control serum and plasma (MALDI-TOF MS-based protease assay); type: in vitro ADME, human
Source text: A large part of the human serum ‘peptidome’, as detected by MALDI-TOF MS, is generated ex vivo (i.e., after blood collection) by protease degradation of blood proteins. Endoproteases produce ‘founder peptides’ which are then pared down by exoproteases into ladder-like clusters. Panels of proteolytic activity in the blood contribute important cancer type-specific information, and that the resulting metabolic patterns have utility as surrogate markers for detection and classification of cancer. Degradation occurs during clotting. The use of exogenous synthetic peptides, identical to previously observed founder peptides, can be used to monitor cancer-specific proteolytic degradation in plasma or serum that contains proteases. Conditions in terms of time, temperature and added amounts of substrates can hereby be readily controlled. Coupled to a MALDI-based read-out, such analyses are blood “protease assays” to monitor the tumor-dependent activities inferred from prior studies. Simultaneous addition of non-degradable, exogenous reference peptides also enables relative quantitation of all rungs in the ladders.
The degradation conditions and times were studied for C3f and FPA in serum and plasma as described above. […] 2 picomoles [^13C-Leu]-labeled C3f was incubated for 30 min at RT with […] aliquots of serum from 20 different breast cancer patients and 20 control samples. […]

## FPA: synthetic fibrinopeptide A, N-terminally cleaved from fibrinogen by thrombin (ADSGEGDFLAEGGGVR; Fibrinopeptide A; UniProt P02671 20-35, looked up)
[1]
  exoproteolytic degradation in plasma (in words): followed a similar time course
[2]
  degradation in control serum and plasma (in words): readily degraded
  degradation time: up to 4 hours

## FPB: fibrinopeptide B, added to plasma like synthetic FPA (QGVNDNEEGFFSAR; ends and bridges not checked; UniProt P02675 31-44, looked up)
[1]
  exoproteolytic degradation in plasma (in words): completely degraded in just a few minutes

Reference: patent US20110312522A1, “METHODS OF DETECTION OF CANCER USING PEPTIDE PROFILES” (Sloan-Kettering Institute for Cancer Research, priority 2005, published 2011)
